According to paper PMC8183112:

Legend:
[1] = whole-cell G-V curve, Boltzmann fit, 300 nM Ca2+; details: glycan lost; control: wild-type BK (α+β1)
[2] = whole-cell patch clamp, 100 nM IbTx, 300 nM Ca2+; details: glycan lost; control: wild-type BK (α+β1)
[3] = whole-cell patch clamp, 400 nM martentoxin, 300 nM Ca2+; details: glycan lost; control: wild-type BK (α+β1)
[4] = western blot, relative β1 level; details: glycan lost; control: wild-type β1, untreated
[5] = whole-cell patch clamp, 400 nM martentoxin, no cytoplasmic Ca2+; details: glycan lost; control: wild-type BK (α+β1)
[6] = activation time constant, single exponential fit, +50 to +120 mV; details: glycan lost; control: wild-type BK (α+β1)
[7] = whole-cell patch clamp, current density; details: glycan lost; control: wild-type BK (α+β1)
[8] = whole-cell patch clamp, 400 nM IbTX, 300 nM Ca2+; details: glycan lost; control: untreated wild-type BK (α+β1)
[9] = whole-cell patch clamp, 400 nM MarTX, no cytoplasmic Ca2+; details: glycan lost; control: untreated wild-type BK (α+β1)
[10] = whole-cell patch clamp, 100 nM IbTX, 300 nM Ca2+; details: glycan lost; control: untreated wild-type BK (α+β1)
[11] = whole-cell patch clamp, 100 nM MarTX, no cytoplasmic Ca2+; details: glycan lost; control: untreated wild-type BK (α+β1)

Protein	other: voltage dependence of activation, other: V1/2 [1]	other: toxin inhibition of channel current, other: fractional current remaining (If) [2]	other: toxin enhancement of channel current, other: fractional current remaining (If) [3]	expression_or_secretion [4]	other: toxin inhibition of channel current, other: fractional current remaining (If) [5]	other: channel activation kinetics [6]	other: channel current [7]	other: toxin inhibition of channel current, other: fractional current remaining (If) [8]	other: toxin inhibition of channel current, other: fractional current remaining (If) [9]	other: toxin inhibition of channel current, other: fractional current remaining (If) [10]	other: toxin inhibition of channel current, other: fractional current remaining (If) [11]
BK channel β1 subunit: N80Q/N142Q (protein) parent chain: MVKKLVMAQKRGETRALCLGVTMVVCAVITYYILVTTVLPLYQKSVWTQESKCHLIETNIRDQEELKGKKVPQYPCLWVNVSAAGRWAVLYHTEDTRDQNQQCSYIPGSVDNYQTARADVEKVRAKFQEQQVFYCFSAPRGNETSVLFQRLYGPQALLFSLFWPTFLLTGGLLIIAMVKSNQYLSILAAQK	no change, 65.35 ± 1.48 vs 66.52 ± 1.47, slope 22.89 ± 1.24 vs 22.55 ± 1.21	increases, 0.46 ± 0.04 vs 0.92 ± 0.01	abolishes, 1.04 ± 0.02 vs 1.13 ± 0.01	no change	increases, 0.72 ± 0.099 vs 0.97 ± 0.018	decreases	no change				
BK channel β1 subunit: PNGase F (protein) parent chain: MVKKLVMAQKRGETRALCLGVTMVVCAVITYYILVTTVLPLYQKSVWTQESKCHLIETNIRDQEELKGKKVPQYPCLWVNVSAAGRWAVLYHTEDTRDQNQQCSYIPGSVDNYQTARADVEKVRAKFQEQQVFYCFSAPRGNETSVLFQRLYGPQALLFSLFWPTFLLTGGLLIIAMVKSNQYLSILAAQK								increases, 0.43 ± 0.06 vs 0.65 ± 0.03	increases, 0.63 ± 0.02 vs 1.00 ± 0.03	increases, 0.54 ± 0.05 vs 0.89 ± 0.01	increases, 0.83 ± 0.03 vs 1.00 ± 0.03
BK channel β1 subunit: tunicamycin (protein) parent chain: MVKKLVMAQKRGETRALCLGVTMVVCAVITYYILVTTVLPLYQKSVWTQESKCHLIETNIRDQEELKGKKVPQYPCLWVNVSAAGRWAVLYHTEDTRDQNQQCSYIPGSVDNYQTARADVEKVRAKFQEQQVFYCFSAPRGNETSVLFQRLYGPQALLFSLFWPTFLLTGGLLIIAMVKSNQYLSILAAQK				no change							
BK channel β1 subunit: N80A/N142A (protein) parent chain: MVKKLVMAQKRGETRALCLGVTMVVCAVITYYILVTTVLPLYQKSVWTQESKCHLIETNIRDQEELKGKKVPQYPCLWVNVSAAGRWAVLYHTEDTRDQNQQCSYIPGSVDNYQTARADVEKVRAKFQEQQVFYCFSAPRGNETSVLFQRLYGPQALLFSLFWPTFLLTGGLLIIAMVKSNQYLSILAAQK		increases, 0.46 ± 0.04 vs 0.92 ± 0.01	abolishes, 0.99 ± 0.02 vs 1.13 ± 0.01	no change	increases, 0.71 ± 0.064 vs 0.97 ± 0.018		no change				
